Laboratory results as given in patent US8697366B2, “Anti-cancer drug screening method using RORα” (Seoul National University Industry Foundation, priority 2009, dated 2014).
Entries after “also recorded” stand apart in the source; their conditions may differ.

Assays:
Format in all cases: cell-based
PKCα = assay: Immunoblot against anti-phospho-PKCα antibody after Wnt5a treatment; settings: anti-phospho-PKCα antibody (active form)
Text: (§1) (A) Treatment of Wnt5a increased phosphorylated RORα and PKCα but decreased cyclin D1 expression as assessed by immunoblot analysis against each antibody.

cyclin D1 = assay: Immunoblot of cyclin D1 expression in colon cancer cells
Text: as §1

[1] = test system: HCT116 colon cancer cells; assay: Transwell cell migration assay; settings: Wnt5a 100 ng/ml pretreatment 2 hr, compared to non-treated cells
Procedure: HCT116 cells stably expressing RORα, RORαS35A, or RORαS35D were used in Transwell cell migration assays along with control cells. Transwell cell migration assay was conducted as previously described (Kim et al., 2006). Cultured cells were pretreated with Wnt5a (100 ng/ml) for 2 hr, and 2.5×10^4HCT116 cells were loaded onto the top of a 24-well Transwell chamber assay plate (BD Biosciences). Conditioned McCoy's 5A medium containing 15% fetal bovine serum was added to the bottom chamber as a chemoattractant. After 22 hr incubation, the cells that had migrated to the lower chamber of the filter were fixed with 100% methanol, stained with DAPI, and quantified by counting the total number of cells in four different fields. All experimental studies were performed according to the manufacturer's protocols. Values are expressed as means±standard deviations for at least three independent experiments.

cyclin D1 promoter = assay: ChIP assay on the cyclin D1 promoter in HCT116 cells
Procedure: (A) The specificity of the antibody raised against phosphorylated RORαS35 peptide (SEQ ID NO:18) was assessed by dot blot analysis. (B) Treatment of TPA increased phophorylated RORα on S35 site as assessed by immunoprecipitation with anti-phospho-RORαS35 antibody. […] (D) Treatment of Go6976, a PKCα inhibitor, abolished TPA-dependent phosphorylation of RORα as assessed by immonoblotting with anti-phospho-RORαS35 antibody. (E) HCT116 cells were transfected with Flag-RORα WT, S35D, or S35A, and the cell extracts were immunoprecipitated with anti-Flag antibody followed by immunoblotting against anti-β-catenin antibody. (F) Coimmunoprecipitation assay of β-catenin with either RORαWT or S35A in HCT116 cells after treatment with TPA in the absence or presence of Go6976. (G) ChIP analysis on the cyclin D1 promoter after transfection with Flag-RORαWT, S35A, or S35D in HCT116 cells. (H) ChIP analysis on the cyclin D1 promoter in HCT116 cells after TPA treatment for indicated time. (I) ChIP assay was performed on the cyclin D1 promoter in the absence or presence of siRNA against PKCα with treatment of TPA for 90 min. (J) Real-time quantitative RT-PCR analysis of the cyclin D1 transcript in HCT116 cells in the presence of TPA for indicated time. (K) Knockdown effect of siRNA against RORα or PKCα was assessed in the expression of the cyclin D1 transcript in HCT116 cells.
(B) Cyclin D1 transcript was measured after introducing siRNAs against RORα or PKCα in the presence of Wnt5a in HCT116 cells. (C) Real-time quantitative RTPCR analysis of the cyclin D1 transcript in HCT116 cells after introducing RORα, S35A, or S35D in the presence of Wnt5a. (D) […] on the cyclin D1 promoter with treatment of either TPA or Wnt5a in HCT116 cells. Occupancy of the cyclin D1 promoter by phosphorylated RORα, β-catenin, RNA polymerase II, H3K9me2, H3K4me2, CBP, pCAF, p300, or SMRT was indicated. (E) Transwell cell migration assay for RORα, RORαS35A, or RORαS35D-expressing HCT116 cells with treatment of Wnt5a. Values are represented as mean±s.d. for three independent experiments. (F) The anchorage-independent growth of HCT116 cells expressing RORα, RORαS35A, or RORαS35D in soft agar. Values are expressed as mean±SEM for two experiments in 6 place wells. Colonies were counted in 10 different fields and total colony number/well was calculated. Representative image is shown for each group.
The ChIP, two-step ChIP, and shRNA-coupled ChIP assays were conducted as previously described (Baek et al., 2002; Kim et al., 2005).

RORα = assay: Phosphorylation of RORα in HCT116 cells (immunoprecipitation / immunoblot with anti-phospho-Ser or anti-phospho-RORαS35 antibody); settings: HCT116 cells, treatment alone
Procedure: (A) Schematic representation of RORα showing the location of the N-terminal domain (NTD), the DNA-binding domain (DBD), the hinge region, the ligand-binding domain (LBD), and the AF-2 domain. […] HEK293 cells were cotransfected with plasmids expressing each His-tagged RORα deletion construct and β-catenin. Whole cell extracts (left panel) and Ni^+-NTA-agarose pulldown materials (right panel) were analyzed by immunoblotting against anti-β-catenin IgG or anti-Xpress IgG. (C) Illustration of the structure of deletion fragments of RORα(SEQ ID NO:17). (D) Interaction of each RORα deletion construct with HisMax-β-catenin was assessed by Ni^+-NTA-agarose pulldown assay. […] The phosphorylated peptide samples were analyzed by LC-MS analysis. […] Immunoprecipitation assay was conducted with anti-Flag antibody, and the phosphorylated RORα was detected by immunoblot analysis with anti-phospho-Ser antibody. […] The reaction samples were subjected to 12% SDSPAGE, and phosphorylated RORα was detected by autoradiography. […] The fluorescence-conjugated secondary antibody was visualized using fluorescence microscopy, and nuclear staining with DAPI was shown.
(A) The specificity of the antibody raised against phosphorylated RORαS35 peptide (SEQ ID NO:18) was assessed by dot blot analysis. (B) Treatment of TPA increased phophorylated RORα on S35 site as assessed by immunoprecipitation with anti-phospho-RORαS35 antibody. […]

cyclin D1 transcript = assay: Real-time quantitative RT-PCR of the cyclin D1 transcript in HCT116 cells
Procedure: The abundance of mRNA was detected by an ABI prism 7300 system with SYBR Green (molecular probes). Primer pairs were designed to amplify 90-150 bp mRNA specific fragments, and confirmed to be unique products by melting curve analysis. The PCR conditions were 95° C. (5 min) and 40 cycles of 95° C. (30 s), 57° C. (30 s), and 72° C. (30 s).
The quantity of mRNA was calculated using the ΔΔCt method and normalized by using primers to detect β-actin or HPRT. All reactions were performed in triplicates.

B1: Wnt5a: a noncanonical Wnt ligand (protein, UniProt P41221 62-380, looked up)
Protein Wnt-5a: IIGAQPLCSQLAGLSQGQKKLCHLYQDHMQYIGEGAKTGIKECQYQFRHRRWNCSTVDNTSVFGRVMQIGSRETAFTYAVSAAGVVNAMSRACREGELSTCGCSRAARPKDLPRDWLWGGCGDNIDYGYRFAKEFVDARERERIHAKGSYESARILMNLHNNEAGRRTVYNLADVACKCHGVSGSCSLKTCWLQLADFRKVGDALKEKYDSAAAMRLNSRGKLVQVNSRFNSPTTQDLVYIDPSPDYCVRNESTGSLGTQGRLCNKTSEGMDGCELMCCGRGYDQFKTVQTERCHCKFHWCCYVKCKKCTEIVDQFVCK
Q: For B1, which “phosphorylation of PKCα” value (PKCα) is on record?
A: increased phosphorylation

Q: And the “cyclin D1 expression” value (cyclin D1)?
A: downregulation; also recorded: decreased

Q: And the “migration of HCT116 colon cancer cells” value [1]?
A: attenuated

Q: And the “RNA polymerase II recruitment on the cyclin D1 promoter” value (cyclin D1 promoter)?
A: decreased

Q: And the “methylation of histone H3K9 on the cyclin D1 promoter” value (cyclin D1 promoter)?
A: increased methylation

Q: And the “recruitment of CBP, p300, and pCAF coactivators to the cyclin D1 promoter” value (cyclin D1 promoter)?
A: significantly decreased

Q: And the “recruitment of phosphorylated RORα on the cyclin D1 promoter” value (cyclin D1 promoter; anti-phospho-RORαS35 IgG)?
A: increased the recruitment

Q: And the “phosphorylation of RORα” value (RORα)?
A: increased phosphorylation

Q: What about the “cyclin D1 transcript” value (cyclin D1 transcript) of the same molecule?
A: reduced
